{"source": "paper doi:10.1101/2024.05.23.595439", "key": {"SSF (full-length)": {"biological_target": "T1, SSF (full-length) (Escherichia coli F plasmid, UniProt P18310 1-179)", "T1 sequence": "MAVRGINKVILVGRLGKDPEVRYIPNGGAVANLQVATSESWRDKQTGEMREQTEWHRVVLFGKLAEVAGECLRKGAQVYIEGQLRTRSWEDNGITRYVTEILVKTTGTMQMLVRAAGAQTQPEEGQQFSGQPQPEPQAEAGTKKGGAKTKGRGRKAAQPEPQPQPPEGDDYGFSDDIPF", "test": "MST"}, "SSB (full-length)": {"biological_target": "SSB (full-length) (Escherichia coli, UniProt P0AGE0 1-178)", "sequence (P0AGE0 whole entry)": "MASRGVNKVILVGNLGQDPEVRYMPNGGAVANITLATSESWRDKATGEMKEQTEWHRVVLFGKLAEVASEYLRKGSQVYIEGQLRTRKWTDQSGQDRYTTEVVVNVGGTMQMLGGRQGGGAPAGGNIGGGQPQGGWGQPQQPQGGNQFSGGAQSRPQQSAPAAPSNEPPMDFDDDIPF", "test": "MST"}}, "data": [{"binder": "GGCAAATTACTCCTGTAATTTGCC (structured_DNA)", "note": "[hairpin dsDNA]", "values": [{"measurement": "Kd", "setting": "SSF (full-length)", "value": 45.3, "unit": "µM"}, {"measurement": "binding result", "setting": "SSB (full-length)", "value": "no binding"}]}]}
